Reference: a protein production outcome set (Wang et al. 2014)

Test: label from the status in PepcDB records
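Note: failed if final PepcDB status was selected cloned or expressed and not failed if soluble or beyond.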

Sequence	protein production
MIRAYKFLLRPTVRQAQALAEMLRDHCSLYNAALQERRDAWRHPSKTTVKYGGQSAQLKDIRAFDPERQGRWSFSSQQATLRRLDKAFAAFFRRVKSGETPGYPRFRGVNWFDTVDFPKDGDGCRWNSTPHDPATRVRLQGVGHVKVNQHRPVAGRVKTVSVKREGRKWFVVLTAEQDQPEPLPATGSAAGIDLGIANFLADSGGGFVPNPRHGRRAADKLQAAQQALARFPRRKAKDRTANHRRAVGKVAQLHGKVRRQRLDHAHKTALGLVRAHDFIAHEDLRIRNMSKAPAPKPDPDKPGTFLPNGAAAKAGLNKSINDAGWGVFLTILHAKAESAGREVIAVDPRDTSRTCPECGHTAKENRPTQEKFHCVACGHHAHADTVAATNVLRAGLVRRNANPA	failed
ERRGFSAEDFKTFHPGGKLGSQLLLAHELAHSGEAVPLLPIGSPMSEAVIQMSSKGFGVVGVVGGDGELVGVITDGDLRRHMSQSLLLLTVETVMSHMPRVITPGMLASAAMEMMQSQKITVLFLVDDVGRPSGILHVHDLLRA	failed
MLSNRFNRWTVAAIALMGTAIATVPGRVLAQTPDHPSDTAAQFPTRNDLKSLTTSGSYLAARHASVERDATSAAAFYRSALRTDPKNNELLDRAFISSVADGDIDEAVKLAERVLTIDKTNRVARLVVGVHDLKMKKYATAQTNINQSIRGPITDLVATLLSGWAAYGAGDSKGAVATIDKLAGPEWYPLFKDLHAGMILELAGKEKDAGTRFERAYKLDDSMLRVTEAYARWLSRNKDAAAATTVYQAFDKKLARHPLIVEGLRDTKAGKKLPPLVDSAQAGAAEALYGIGATLTRRGGEDLALVYLQLSLYLQPTHPLALLSLADLYESVKRPQMAIKVYERVPSTSPLKRNAQIQLAIDLDSADRTDEAIKILKGVTSEDSKDLEAIMALGNIERGRKKFGDCGATYSQGVDVLPAGNDKANSVWYYYRGICEERSKQWAKAEADMKKALELQPDQPHVLNYLGYSWIDQGVNLDEGMKMIKRAVEQRPDDGYIVDSLGWAYYRIGNYEEAVKNLERAIDLKPEDPTINDHLGDAYWRVGRTLEAKFQWSHARDLKPEPDELPKIEAKIANGLTEDNSNSSAAQAEKKKDDGKGG	failed
MSRLSAAAIELFEDLIRQQVEDKAIPSISYGLVDRDGLMGAGHIQRHDRGFVMGDDTCFRIGSITKTFTAVAVMQLAEKGLVDLDVDVSEYLPGFKPQNPFAGREGGPHGAQISLRKLMSHTAGLVREPKSGHYLDAARPPLADTVAELATSTLKQDPSLGQMHYSNAGIAVAGRVIETLTRKSYAEYVSENILKPLGMDQTSSGLAPGIAERLAPADMWTLEGDSPAPVFDLGGPPAGNIYSTTSDMARYVQCLLRGGFAPDGWQIVSPGSLREMWVPIGKRASGERVANTYGLCFGVGDVDGWTSVGHGGAVYGYSSQMILLPAAGVGVLIFSTLDFSNQIGARLGVEGLRIALAERRMGTLPVRPQGLPPVAADQLVALPGHYRHDTSGEVVEVKAKAGKLFLMGEGVPLQIRPVAGSDFTIDGRIYGHGAEYPHMNLSFPAPGALVWKGVNWSRIDALPAEAVPAEIAPHLGEYGPDFNITYLSYSHGELKCLIEYFCTHGCEPVEAGRFRMRGLLYEEEILEIDAIDDHGRRGIRVGPMFLERRHAPAA	failed
MSIRPATHAGSWYSNRAQELSQQLHTYLIKSTLKGPIHNARIIICPHAGYRYCGPTMAYSYASLDLNRNVKRIFILGPSHHIYFKNQILVSAFSELETPLGNLKVDTDLCKTLIQKEYPENGKKLFKPMDHDTDMAEHSLEMQLPMLVETLKWREISLDTVKVFPMMVSHNSVDVDRCIGNILSEYIKDPNNLFIVSSDFCHWGRRFQYTGYVGSKEELNDAIQEETEVEMLTARSKLSHHQVPIWQSIEIMDRYAMKTLSDTPNGERYDAWKQYLEITGNTICGEKPISVILSALSKIRDAGPSGIKFQWPNYSQSSHVTSIDDSSVSYASGYVTIG	failed
MDEFDYVRRKLIERILHLTEKQPVVRPLPGLTVGRRESPTEPSTYILPPSICIAVQGAKRVLIGEEYYVYDVENFLLNSFDVPVVAQVIEASKEKPYIGMTWEIDMEILMEIVVEQKLNTRPITSSRGTSLGKVTHQLLDAFRRMLELLDEPEHISALLPVIKKEIIYRLLVSEQGPRL	failed
GTQAGVPAWSTIKVPISIAALRANPGNDVLMRQAITVSDNDAARALWDSLGSPREKVGAVLAQGGDPQTQVNDQPGMRTFC	failed
MGHHHHHHSHMVDRLQSEPESIRKWREEQMERLEALDANSRKQEAEWKEKAIKELEEWYARQDEQLQKTKANNRVADEAFYKQPFADVIGYVTNINHPCYSLEQAAEEAFVNDIDESSPGTEWERVARLCDFNPKSS	not failed
MLFNKMKNYKGFTAVKELWLLNLFILSVFTLSFSVSAASNDVSINNNELIGISYNTIQSDQIVVVFSFTKNITSLPIVKTSMTPAFVEVTFDANTYGKDLTETLINHAGIKGINLDAKTGKVVALISLEKLAVFDVSLNNEKEFSITFNYGESAEIVETLSPAGDDFINSIESIDFRLNGDNEGQILVYLKDSMLAADVNDKLGKLNVEFHNTEIIDDLLYKLDVTDFGTLVTSIETFKEGRNARLVIDVESGFIFTQKQEENLFILTVKKKPEKAPTYLGDTDDFTGRSISLSFQDIPVRTVLQIIADYNEFNLIISDTVTGNITLRLDGVPWDQALSIILKVKGLDKRMQGNILMVAPSDELAAREAQSLQAKQQVEELATLYSEYLQINYAKAAEFSELIKNEDTSILSDRGSVSVDERTNTLLIRDTAKSIEDIKRMITILDVPVRQVVIEARMVTVKDNMNEELGIRWGVTNTDGEFATSGSIEGASSANGTRGVTTPGVGQVPTIGDGLNVNLPVANAAGTIAFQVARLANGTILDLELSALEKENKGEVIASPRITTANQKEAYIEQGVEIPYQEAASSGATATQFKKAVLSLTVTPHITPDDKIILDLVVTQDTISDITSGFAPAIDTQRIGTQVLVNNGETIVLGGIYQQAIISTVSKIPILGDIPYLGWLFRNSSQLNEKKELLIFVTPRIVTEHF	failed
MLTRYLAIAAIALALTGLGGCSVNPVTGEKQLSLISENQELALGAEQYTPTQQTQGGRFYIDPELSIYVRDVGQKLARVSDRPDLPYEFVVLNNSVPNAWALPGGKIAINRGLLVELEDEAQLASVLGHEIVHAAARHSVQRMQQGMLISAGVAGLGFALSDNEWAGLIMGGAALGAQLALAQYSQGDELESDAYGIRYMKEAGYDPQAAVELQQLFLKLSEGRQSGWLDGLFATHPPSAKRVQENQELVQNIGSGGYRGRDVYQRRIAKLKELQPAYDAHDEAMKLASEGKFEAALDQVNKAIKLEPREAMLFALRGRIYRGMEQPEKAKADFDKAVSLYPEMFQYQLYSGLNELELNNLGKAKTHLEKANQVVPTSIAYLRLGDIARQQGQRSEAVAYYSTAAEAGGDVGAEAQRKLAELSN	failed
MGIKQYSQEELKEMALVEIAHELFEEHKKPVPFQELLNEIASLLGVKKEELGDRIAQFYTDLNIDGRFLALSDQTWGLRSWYPYDQLDEETQPTVKAKKKKAKKAVEEDLDLDEFEEIDEDDLDLDEVEEELDLEADDFDEEDLDEDDDDLEIEEDIIDEDDEDYDDEEEEIK	not failed
MRVEDVMVTDVDTIDITASLEDVLRNYVENAKGSSVVVKEGVRVGIVTTWDVLEAIAEGDDLAEVKVWEVMERDLVTISPRATIKEAAEKMVKNVVWRLLVEEDDEIIGVISATDILRAKMAKRY	not failed
MRKLAAFLGLVGLLSLGLAQSAQEILDRVEKNLSTPWQATVQGRIQGPGGEEELLARVYALPQARLFRVEFLKPGSLEGNFTVITEKEVWNYLYLTNQLVISPREKAKIQGLGFAPQGLGDLKALSEQVDLRLEGEVRLPEGMAWKLVGRSKENQGFAAMELYILKADPRPLRFVFLDEKGKVLADLKVVEFKRTNLTEAQLKRYPKDAQVVRR	not failed
MERSAFMELDAGSRLVMHLREWPALLVSSTGWTEFEQLTLDGHNLPSLVCVITGSVDLGVCLHMSSSGLDLPMKVVDMFGCCLPVCAVNFKCLHELVKHEENGLVFEDSEELAALQMLFSNFPDPAGKLNQFWKDLRESQQLRWDESWVQTVLPLVMDIQLLGQRLKPRDPCCPSRSFFSESQGKPF	failed
MKVTSAEKHALLLPDNRTLTWYESGPSDGQPVLFCTGAGMSGLLSMDADLLTKLNIRLITPTRPGLGESTFDPKKTLKSFSSDVLFLLAYLNIKNISVIGSSQGAVFAMAICYYGKVDKLAIVAGQDQLDYPEIKKLLSSDVVNMQQQALFDPDGLKTWIIENITADWLMDFILNYSADVDLALYQENKFFPVYQACMKEAFKYGNKGYAQDLLITMQPWGFTPEMISTPTTLWYGLKDTSTVHSPDFGKLLSQRFPHAQRYVYDNEGGSLLWTKTSQILTNLIS	failed
MKLINKSIPSIRLSEFISEIEDCLAATFYGDTFWITTEISDVNKKPDKRWCYLKLIEKEGKNVTAEIGAVFWTPGYAYIEKFEKETKQLFKDGLEITCRVKVTFHKRWGLKLEIVEIDYAYTLGKLEAERQETLDRLVKENPDYVRLVGEQYYTFNKSLPLPAVVQRIALITAPESDGQRDFRQELGNNPYGYAFHVDEFVTQIQGDKAHEFIIGKLLLIEAQKEKYDVVAIVRGGGSQLDLKAFDAYDLAQRIASFPVPILTGIGHDRNTSIADLMARQEKTPTKVANVIIQRNFQFEQTVLILKERMVHTVDGLFTNAKNNLKEIKRFVKASNPLTILKKGFAIVKQDNVIITDPSAIDVGTEIQIQFDKETVQSTVTKKKKNGK	failed
MTETHQQLMKLPVNQVFFKYFVPATLGLILMSANILIDGLFVGNGIGTAALAGVNLSYPVISLIMAIALWIGIGGATKYSISIGENRPKKASSIFSLALFLALIISVLLGVFGILNIQTISIWLGANSDTSSFVIEYLSVMFLFGWVITLEQVLSIFVRNDGSPKLSMMALATTSIVNIILNFYTIMILDMGVTGAAISTVLGGFAGLLVLSLHFFNRQAQLRRPAFQWSWKSLMHIFAIGFPSFLAEAGLLVFVTGYNLAMASLAGTEGVAAFSVINYLHGFMFLSFFGIEMALQPMISYYHGAEETEQIKSSMKIGEKTAVILGILLLVIGWGAAPFLVGLFGIESTEIQQLAIDGIRLFFIGYTFLGYNFVYMSYFQSIGRAGSSVVIIILRSFVSLFILLWILPKFIGVTGVWLSLPLSEFFVAVLLFFIARKHVMGKGNPAIGKG	failed
MFVFGAYWFDCGERAVLPANSRGALRPQCTRLRFWRGRYWHRGAVSALRRVRPLSASTPSPRVLDGSQSLADTPDNVQQLLQHMSQELDSVVQSMVHLEEYALEQVEKLKGAMEADLRKLALYEEEQAFAQKLTEQLQKKEGAVFEAMRHFLFHVVGLQEQTVAITNELQVLHEFVSENHERVELVLESLRERGLFGSRQDVFEGEVKKKLDRFDPEI	failed
MRLLHTSDWHLGRSFHGVGMLDAQRNFVDQLVSLVQSKSVDVVLIAGDVYDRALPGLDVVKLLDDALVRITQAGAGVVLTSGNHDSAIRLGFASRLLERGGVHLRTKVEDIDVPVLFPLGGDENAKNSTLNGQVVVYGIPYLEPRLVAERLGAENANHFDVTLAAVERIRRDVEARRASGPVYPVVLAHTFASGGITSESERDLSIGGLGAVPLDLFDDFAYTALGHLHGRQELAPHVRYSGSPLAYSFSEAKHHKGAWLVDLDAGGVIAVEEVLWEAPKALATLRGTLDDLLGAEEHAWAENAYCQITLTDTQRPAQAMERVRTRFPDTLVLSFDPQGAAARTSTSYSNRLAEAEDDLGVCCGFLDHVRDRDASDAEEAALREALEAVRLQEAEL	failed
MPELPEVETTRRRLRPLVLGQTLRQVVHRDPARYRNTALAEGRRILEVDRRGKFLLFALEGGVELVAHLGMTGGFRLEPTPHTRAALVLEGRTLYFHDPRRFGRLFGVRRGDYREIPLLLRLGPEPLSEAFAFPGFFRGLKESARPLKALLLDQRLAAGVGNIYADEALFRARLSPFRPARSLTEEEARRLYRALREVLAEAVELGGSTLSDQSYRQPDGLPGGFQTRHAVYGREGLPCPACGRPVERRVVAGRGTHFCPTCQGEGP	not failed
